Measurements: patent US20180072770A1, “Influenza Virus Binding Peptides” (priority 2014, published 2018)
No end group written: not given here.

B1: peptide with SEQ ID NO:28, N-terminal (Lys)4, C-terminal amide (peptide)
peptide: KKKKFYGYDVFF
modifications: not fully specified (C-terminus)
B2: reference peptide with SEQ ID NO:1 (FYDYDVFY), N-terminal (Lys)4, C-terminal amide (peptide)
peptide: KKKKFYDYDVFY
modifications: not fully specified (C-terminus)

Legend:
[1] = biological target: hemagglutinin of influenza A virus A/Mute swan/Germany/R901/06 K3141 H7N1 (influenza A virus A/Mute swan/Germany/R901/06 K3141 H7N1)
[2] = biological target: hemagglutinin of influenza A virus A/Mute swan/Germany/R901/06 K3141 H7N1 (influenza A virus A/Mute swan/Germany/R901/06 K3141 H7N1); assay: cell-based or functional assay
[3] = biological target: hemagglutinin of influenza A virus A/Panama/2007/1999 H3N2 (influenza A virus A/Panama/2007/1999 H3N2); assay: cell-based or functional assay

Binder | IC50 [1] | Hemagglutination inhibition (IC50, HAI) [2] | Mean Ki(HAI), hemagglutination inhibition assay, turkey erythrocytes [2] | Mean Ki(HAI), hemagglutination inhibition assay, human erythrocytes [3]
B1 | 30 µM | 23 µM | 36.5 µM | 0.1 µM
B2 | 40 µM | 47 µM | 62.5 µM | 16 µM
